# According to patent US20080207498A1, “Methods for Treating Alzheimer's Disease” (priority 2005, published 2008):
# No end group written: not given here.
# B1: Peptide … (SEQ ID NO:15) (peptide)
# peptide: APPCAFHLGELVWCT
# modifications: not fully specified; cysteine pairing not given here
# B2: Peptide … (SEQ ID NO:3) (peptide)
# peptide: DCAFHLGELVWCT
# B3: Peptide … (SEQ ID NO:14) (peptide)
# peptide: APPCARHLGELVWCT
# modifications: not fully specified; cysteine pairing not given here
# B4: Peptide … (SEQ ID NO:13) (peptide)
# peptide: APPCAWHLGELVWCT
# modifications: not fully specified; cysteine pairing not given here
# B5: Peptide … (SEQ ID NO:16) (peptide)
# peptide: APPDCAWHLGELVWCT
# Target: Preformed immune complex of peroxidase and rabbit anti-peroxidase IgG (PAP complex) (horseradish) (UniProt P00433)
# Experiment: competition reverse ELISA: PAP pre-incubated with peptide, residual PAP binding to C1q-coated plate
# Sequence of Preformed immune complex of peroxidase and rabbit anti-peroxidase IgG (PAP complex) (horseradish) (P00433 31-338, one chain of several): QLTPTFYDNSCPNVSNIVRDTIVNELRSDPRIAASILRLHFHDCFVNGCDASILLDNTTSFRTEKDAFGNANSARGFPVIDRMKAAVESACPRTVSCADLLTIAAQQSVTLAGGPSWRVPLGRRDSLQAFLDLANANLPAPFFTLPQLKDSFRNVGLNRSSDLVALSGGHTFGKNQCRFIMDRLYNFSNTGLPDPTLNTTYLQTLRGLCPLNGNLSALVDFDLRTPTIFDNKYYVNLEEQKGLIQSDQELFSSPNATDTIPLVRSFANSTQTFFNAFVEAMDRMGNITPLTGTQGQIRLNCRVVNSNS
row,OD 405 nm [OD],Binder
1,0.983,B1
2,0.859,B2
3,0.567,B3
4,1.15,B4
5,0.389,B5

# Target: Preformed immune complex of peroxidase and rabbit anti-peroxidase IgG (PAP complex) (horseradish) (UniProt P00433)
# Experiment: competition reverse ELISA: PAP pre-incubated with peptide, residual PAP binding to FcγIII-coated plate
row,OD 405 nm [OD],Binder
1,0.88,B1
2,0.81,B2
3,0.709,B3
4,0.53,B4
5,0.67,B5

# Target: Preformed immune complex of peroxidase and rabbit anti-peroxidase IgG (PAP complex) (horseradish) (UniProt P00433)
# Experiment: competition reverse ELISA: PAP pre-incubated with peptide, residual PAP binding to FcγIIb-coated plate
row,OD 405 nm [OD],Binder
1,0.38,B1
2,0.51,B2
3,0.768,B3
4,0.562,B4
5,0.496,B5

# Target: Preformed immune complex of peroxidase and rabbit anti-peroxidase IgG (PAP complex) (horseradish) (UniProt P00433)
# Experiment: competition reverse ELISA: PAP pre-incubated with peptide, residual PAP binding to FcγIIa-coated plate
row,OD 405 nm [OD],Binder
1,0.605,B1
2,0.66,B2
3,0.956,B3
4,0.658,B4
5,0.509,B5

# Target: Preformed immune complex of peroxidase and rabbit anti-peroxidase IgG (PAP complex) (horseradish) (UniProt P00433)
# Experiment: competition reverse ELISA: PAP pre-incubated with peptide, residual PAP binding to plate coated with human wt tau
row,OD 405 nm [OD],Binder
1,0.059,B5

# Target: Preformed immune complex of peroxidase and rabbit anti-peroxidase IgG (PAP complex) (horseradish) (UniProt P00433)
# Experiment: competition reverse ELISA: PAP pre-incubated with peptide, residual PAP binding to plate coated with human wt β amyloid peptide 1-40
row,OD 405 nm [OD],Binder
1,0.885,B5
